Values of other authors, collected in paper PMC7039207.

Target: Vinculin tail D5 (Gallus gallus) (UniProt P12003)

Vinculin head D1-D4 (from UniProt P12003)
Kd: 0.1 µM
